Source: the supplement of paper PMC9170038

System: MS2 coat protein
Assay: apparent KD of MS2 coat protein; higher = weaker reporter binding
Conditions: Eterna round: R107
In short: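 Normalised binding curves from single clusters were fitted, and the median fit for each design is given as apparent KD. The clusters held designed RNA switches transcribed on-chip from Illumina sequencing clusters. These were titrated with SNAP-549-labelled MS2 coat protein (twofold steps from 0.7 or 1.5 nM to 3 µM, 0.8–1.5 h to 10–20 min per step) in 100 mM Tris-HCl pH 7.5, 80 mM KCl, 4 mM MgCl2, without or with constant ligand.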

[1] = input ligand: theophylline 20 uM
[2] = input ligand: tryptophan 2.4 mM
[3] = input ligand: theophylline 2 mM

Sequence | apparent KD of MS2 coat protein (input ligand: arginine 13.2 mM) | apparent KD of MS2 coat protein [1] | apparent KD of MS2 coat protein [2] | apparent KD of MS2 coat protein (input ligand: none) | apparent KD of MS2 coat protein [3]
GGCCGGUGCGCUUUGAAGCGACGGCGUGAUACCAGAUGUAAGAGCGUCCCUUGGCAGCACGUUUACAUGAGGAUCACCCAUGUCU [Zaveusxe] | 53.2 nM | 256 nM | 220 nM | – | –
UGUAUGGACUGAAGGAGCGGAAAAUAACCAUGAGGAUCACCCAUGGAAUAGGCGAAAGCCAUCCAGGUAGGUCGCAGUCCAUACU | 23.4 nM | 32.4 nM | 31.6 nM | 31.6 nM | 36.6 nM
GGUAUGUAUUCGGAAACGAAUGCAUACCAACGAGGACCGGUACGGCCGCCACUCGCCGUCCUCAAACAUGAGGAUCACCCAUGUA [Ex Tryptophan A 7] | 19.5 nM | 30.5 nM | – | – | 30.6 nM
UGUAUGUGAUCUGAUACCAGAGUGAAUAACCUGAGGAUCACCCUGGUAAGGCGAAAGCCACUCCCUUGGCAGCAGAUCGCAUACU | 121 nM | 100 nM | 136 nM | 136 nM | 26.6 nM
UGUAUGGACUGAAGGAGCGGGUUGAUAAUCUGAGGAUCACCCAGGUAAAAGGCGAAAGCCACCCAGGUAGGUCGCAGUCCAUACU | 23.8 nM | 38.9 nM | 36.4 nM | 34 nM | 41.8 nM
CCCAAUUUCCGAGAUAUGGGUCCAACUAAACGAGGACCGGUACGGCCGCCACUCGACUACAAACAUGAGGAUCACCCAUGUAAAG [theeternabot_exclusion_MS2_Trp_A_40] | 17.6 nM | 20 nM | – | – | 19.8 nM
ACAUGAGGAUCACCCAUGUACAUAAGGGAAGGAGCGCGGUGAAACGCAGGUAGGUCGCCCAUAAUAUCUAACAUUAAAUUCAUGU [LeftA3] | 16.8 nM | 27.9 nM | 18.8 nM | 16.6 nM | 20 nM
ACUAGUUGUGCAGAUACCAGACAUGAGGAUCACCCAUGUUUGGGAUCUAAUGAUCAUCUUGUCCCUUGGCAGCUGUACAUCUAGA [Omei Theo B Exc v1] | 27.1 nM | 72.6 nM | 55.5 nM | – | –
ACAUGAGGAUCACCCAUGUUUGAUGUUCCUCGAGGACCGGUACGGCCGCCACUCGAACGAGUGGCACGCGAGUGCGCACUCGCGU [aTa] | 14.3 nM | 19.9 nM | 13.6 nM | 11.3 nM | 15.6 nM
AGGCAGUAGGUGAUCCACUGCCAAGGUGAUACCAGCAUCGAAAGAUGCCCUUGGCAGCACCAACAUGAGGAUCACCCAUGUAAUA [(MT)''-(M)'-(T')-(Theo)-(Ms2)_Design1/22_9] | 36.9 nM | 186 nM | 99.2 nM | – | –
CCUAUGCAGUCGGCCGCCACUGAUAAAAUUAUUUUUACCUCAGAAACAUGAGGAUCACCCAUGUACAGGACCGGGACUGUAUAGG [Ex Tryptophan B 17] | 24.2 nM | 20.1 nM | – | – | 22.8 nM
CGACGAUACCUGGAUACCAGCGACAUGAGGAUCACCCAUGUAUGUGGAUCAGCCAUGAUAUGCCCUUGGCAGCCACCAAAGUCGG [IIIMULLIN] | 17 nM | 24.1 nM | 14.3 nM | – | –
GCACCAGGUACGGAUACCAGACUCUGCCGAUUGGGUGAACAUGAGGAUCACCCAUGUUAGGUCCCUUGGCAGCCGUACCUGGUGC [#18 Exclusion-TheophyllineB] | 26.4 nM | 73.5 nM | 30.3 nM | – | –
UAAUAAAUAAAUCCAAGGUGUAGGUCAGAUACCAGCCAGAUAACUGGCCCUUGGCAGCUGAAUAAACCUGAGGAACACCCAGGUA [TheoAS 24 #OpenEnded #MS2Late #AlternativeMS2] | 26.7 nM | 49.5 nM | 27.3 nM | 31.6 nM | 197 nM
CGACACCAGGCAAUCCAUCACCCGGCUGAUACCAGCUCUUUUGGAAGCCCUUGGCAGCAGAGAACAUGAGGAUCACCCAUGUCAG [theeternabot_exclusion_MS2_Theo_A_18] | 14.5 nM | 16.7 nM | 17 nM | – | –
GGUGGACUUUCGGCCGCCACUGAGAGAGUCGUGUGAACAUGAGGAUCACCCAUGUAAUAUAUAUACAGGACCGGGAGGGUUGUCC [4.O] | 20.6 nM | 28.7 nM | – | – | 25 nM
UCAGUGCAAGGAAGGAGCGGGUACAUGAGGAUCACCCAUGUGCAAGUGGUGAGCGUCCGUGCCCAGGUAGGUCGCCUAGCCUGGU [Quisso] | 56 nM | 180 nM | 101 nM | 109 nM | 149 nM
AUAAUAUAGACGGCCGCCACUAUAAACAUGAGGAACAUGAGGAUCACCCAUGUAUGAGGAUCACCUAGGACCGGGUCAUAUAUUA [AstrosExyTryB#2] | 39.3 nM | 79.8 nM | – | – | 62.4 nM
UGACAUGAGGAUCACCCAUGUUUAGAUGAACGAGGACCGGUACGGCCGCCACUCGAUAAGUGGAAAGAGCGAGGGAUCGCAUGCU [Same State Trp A GF5] | 12.1 nM | 17.5 nM | 14.4 nM | 12.9 nM | 12.9 nM
UUUAAAAUAACAGAUACCAGCGUGUUAUAAAACAUGAGGAUCACCCAUGUAGUGAUCAAGCGCCCUUGGCAGCUGGUAUUUUAGG [7.E] | 186 nM | 161 nM | 132 nM | – | –
CCCUCCAGAACGGCCGCCACUAAAGGGUUGUGUGCGACUCCGGAACAUGAGGAUCACCCAUGUCUUAGGACCGGGUUCCCUUCUA [theeternabot_sameState_MS2_Trp_B_30] | 58.9 nM | 81.9 nM | – | – | 82.2 nM
AUCGUACCUGAUGAUACCAGCAAGUGAUCAUAACAUGAGGAUCACCCAUGUAAUCAGUGAUGCCCUUGGCAGCAUAAUCGAUACA [Same State - Theophylline B (Freestyle 4)] | 91.6 nM | 204 nM | 164 nM | – | –
CACAUGAGGAUCACCCAUGUCUGAACUGAAGGAGCGCUAAAUAAGGCAGGUAGGUCGCGGAAUCGUGUGUGCAUAUGCACACGCG [9.U] | 17.8 nM | 35.7 nM | 18 nM | 24 nM | 25.3 nM
AGCACUGUGACGGCCGCCACUACAUAUAGGGUGGUCAGGCCCAUAAUACAUGAGGAUCACCCAUGUAGGACCGGGUCUCAGUGCA [Omei Trp Exc B A v12] | 11.7 nM | 25.4 nM | – | – | 18.3 nM
GGGUAAGAUCCGGAUACCAGCGAACAUGAGGAUCACCCAUGUGACCUAAGAUAGGCUAAACGCCCUUGGCAGCCGAAAUAGCGUU [Same State Theophylline B GF 5] | 24.9 nM | 43 nM | 39.5 nM | 36.4 nM | 38.2 nM
UAUAUAUAUAUUGAUACCAGCAGAGAAAACGUUUAUCCUAACAUGAGGAUCACCCAUGUAUGCCCUUGGCAGCGAUAUAUAUAUA [8.C] | 22.2 nM | 31.3 nM | 21.7 nM | – | –
ACAUGAGGAUCACCCAUGUUCCUCGCCGAUACCAGUGAAGAAGAACGCCCUUGGCAGCGGAAAGAAUAUUUUGGAGAUGAGAUAU [6.V] | 70.5 nM | 272 nM | 220 nM | – | –
UAUCGUCAGACGGCCGCCACUAGAACAUGAGGAUCACCCAUGUAAGUGGCUGGUUCAUGGGUGUCUAGGACCGGGUCUGACGAAU [(Trp1)-(Ms2)-(T)'-(M)'-(Trp2)_Design20] | 14.8 nM | 21.2 nM | – | – | 17.6 nM
UCGGAGAAGUCGGCCGCCACUGAACUCUUGUUCUACAUGAGGAUCACCCAUGUUCCUUUGUUUAACAGGACCGGGACUUAUACGA [JR_SSTryptoB_Sub009] | 108 nM | 283 nM | – | – | 346 nM
